Assays:
[1] = test system: anti-Cop-1 (3-3-9) monoclonal antibody; assay: RIA: binding of anti-Cop 1 monoclonal antibody to coated antigen; conditions: for % Cop 1 binding: relative to Cop 1 reference standard 03494; for Binding of mAb cpm: wells coated with 2 μg/ml antigen, 125I-goat anti-mouse IgG bound
[2] = test system: anti-Cop-1 (3-1-45) monoclonal antibody; assay: as above; conditions: for % Cop 1 binding: relative to Cop 1 reference standard 03494; for Binding of mAb cpm: wells coated with 2 μg/ml antigen, 125I-goat anti-mouse IgG bound
[3] = test system: anti-Cop-1 (5-7-2) monoclonal antibody; assay: as above; conditions: for % Cop 1 binding: relative to Cop 1 reference standard 03494; for Binding of mAb cpm: wells coated with 2 μg/ml antigen, 125I-goat anti-mouse IgG bound
[4] = test system: BALB/c-Ts-Cop-1 T cell line; assay: Proliferation of Cop 1 specific T cell line (3H-thymidine uptake); conditions: for 3H-Thymidine incorporation (% Cop 1): 10 μg antigen, relative to 03494; for 3H-Thymidine incorporation cpm: cultured with 10 μg antigen
L-22-1 T cell clone = assay: as above; conditions: for 3H-Thymidine incorporation (% Cop 1): 10 μg antigen, relative to 03494; for 3H-Thymidine incorporation cpm: cultured with 10 μg antigen
[5] = test system: SC-103 Cop 1 specific T cell clone; assay: as above; conditions: for 3H-Thymidine incorporation (% Cop 1): 10 μg antigen, relative to 03494; for 3H-Thymidine incorporation cpm: cultured with 10 μg antigen
[6] = test system: SC-14 Cop 1 specific T cell clone; assay: as above; conditions: for 3H-Thymidine incorporation (% Cop 1): 10 μg antigen, relative to 03494; for 3H-Thymidine incorporation cpm: cultured with 10 μg antigen
[7] = test system: experimental allergic encephalomyelitis (EAE) in (SJL/JxBALB/c)FI mice; assay: Blocking of experimental allergic encephalomyelitis by injection with complete adjuvant; format: in vivo, mouse; conditions: for Incidence of EAE: antigen included in the encephalitogenic inoculum, animals with EAE/animals in group; for % Blocking: blocking of EAE versus control without antigen; for Mean Score: disease score 0 (healthy) to 5 (dead); for Mean Onset: animals not protected, onset = day of score of at least 1
Description: Blocking of Experimental Allergic Encephalomyelitis—To test the physiological activity of TV-markers, protection from experimental allergic encephalomyelitis (EAE) was investigated in mice. Injection of Copolymer 1 in complete Freund's adjuvant together with the encephalitogen can block EAE essentially as described in Aharoni et al., 17 Eur. J. Immunol. 23 (1993). Other researchers have observed that the therapeutic effect of Copolymer 1 in multiple sclerosis patients is also associated with the induction of TH2 cells. Lahat et al., 244 J. Neurol. 129 (1997). In this example, EAE is blocked by different polypeptides of the present invention.
Pertussis toxin (0.25 ml, 250 ng, Sigma) is injected intravenously, immediately after and 48 hr later. […] 2156 (1979).
EAE blocking by injection with complete adjuvant—Each antigen being tested was included in the encephalitogenic inoculum. […] Also shown is the mean onset of EAE in animals which were not protected. Disease intensity is scored daily in mice with a score of zero (0=healthy) to five (5=dead).

| % Cop 1 binding [1] | Binding of mAb cpm [1] | % Cop 1 binding [2] | Binding of mAb cpm [2] | % Cop 1 binding [3] | Binding of mAb cpm [3] | Molecule | 3H-Thymidine incorporation (% Cop 1) [4] | 3H-Thymidine incorporation cpm [4] | 3H-Thymidine incorporation (% Cop 1) (L-22-1 T cell clone) | 3H-Thymidine incorporation cpm (L-22-1 T cell clone) | 3H-Thymidine incorporation (% Cop 1) [5] | 3H-Thymidine incorporation cpm [5] | 3H-Thymidine incorporation (% Cop 1) [6] | 3H-Thymidine incorporation cpm [6] | Incidence of EAE [7] | % Blocking [7] | Mean Score [7] | Mean Onset [7] |
| --- | --- | --- | --- | --- | --- | --- | --- | --- | --- | --- | --- | --- | --- | --- | --- | --- | --- | --- |
| (0) % | 1176 cpm | (0) % | 343 cpm | (1) % | 657 cpm | AKKYAKKEKAAKKAYKKEAKAKAAEAAAKEAAYEA [TV-35] | (28) % | 9465 cpm | (0) % | 225 cpm | (0) % | 438 cpm | (0) % | 884 cpm | – | – | – | – |
| – | – | – | – | – | – | AKKYAKKAKAEKAKKAYKAAEAKKAAKYEKAAAEKAAAKEAAYEA [TV-45] | – | – | – | – | – | – | – | – | 0/10 | 100% | 0 | – |
| (6) % | 2265 cpm | (9) % | 2152 cpm | (37) % | 4259 cpm | AKKYAKKEKAYAKKAEKAAKKAEAKAYKAAEAKKKAKAEAKKYAKAAKAEKKEYAAAEAKYKAEAAKAAAKEAAYEA (peptide) AKKYAKKEKAYAKKAEKAAKKAEAKAYKAAEAKKKAKAEAKKYAKAAKAEKKEYAAAEAKYKAEAAKAAAKEAAYEA | (52) % | 17367 cpm | (1) % | 300 cpm | (0) % | 327 cpm | (83) % | 2701 cpm | 1/9 | 89% | 0.2 | 14.0 days |
| – | – | – | – | – | – | AKKYAKKEKAYAKAKKAEAKAAKKAKAEAKKYAKAAKAEKKEYAAAEAKYKAEAAKAAAKEAAYEA (peptide) AKKYAKKEKAYAKAKKAEAKAAKKAKAEAKKYAKAAKAEKKEYAAAEAKYKAEAAKAAAKEAAYEA | – | – | – | – | – | – | – | – | 6/10 | 40% | 2.8 | 11.7 days |
| (2) % | 1625 cpm | (6) % | 1606 cpm | (76) % | 8140 cpm | AKKYAKKEKAYAKKAEKAAKKAEAKAYKAAEAKKKAKAEAKKYAKAAKAEKKEYAAAEAKYKAEAAKKAYKAEAAKAAAKEAAYEA (peptide) AKKYAKKEKAYAKKAEKAAKKAEAKAYKAAEAKKKAKAEAKKYAKAAKAEKKEYAAAEAKYKAEAAKKAYKAEAAKAAAKEAAYEA | (44) % | 14694 cpm | (1) % | 418 cpm | (0) % | 298 cpm | (65) % | 2284 cpm | 3/10 | 70% | 0.7 | 12.0 days |
| – | – | – | – | – | – | AKKYAKKAEKAYAKKAKAAKEKKAYAKKEAKAYKAAEAKKKAKAEAKKYAKEAAKAKKEAYKAEAKKYAKAAKAEKKEYAAAEAKKAEAAKAYKAEAAKAAAKEAAYEA (reversed-phase fraction 2 used for calibration) AKKYAKKAEKAYAKKAKAAKEKKAYAKKEAKAYKAAEAKKKAKAEAKKYAKEAAKAKKEAYKAEAKKYAKAAKAEKKEYAAAEAKKAEAAKAYKAEAAKAAAKEAAYEA | – | – | – | – | – | – | – | – | 0/10 | 100% | 0 | – |

| Molecule | % Cop 1 binding [1] | Binding of mAb cpm [1] | % Cop 1 binding [2] | Binding of mAb cpm [2] | % Cop 1 binding [3] | Binding of mAb cpm [3] | 3H-Thymidine incorporation (% Cop 1) [4] | 3H-Thymidine incorporation cpm [4] | 3H-Thymidine incorporation (% Cop 1) (L-22-1 T cell clone) | 3H-Thymidine incorporation cpm (L-22-1 T cell clone) | 3H-Thymidine incorporation (% Cop 1) [5] | 3H-Thymidine incorporation cpm [5] | 3H-Thymidine incorporation (% Cop 1) [6] | 3H-Thymidine incorporation cpm [6] | Incidence of EAE [7] | % Blocking [7] | Mean Score [7] | Mean Onset [7] |
| --- | --- | --- | --- | --- | --- | --- | --- | --- | --- | --- | --- | --- | --- | --- | --- | --- | --- | --- |
| AKKYAKKEKAYAKKAEKAAKKAEAKAYKAAEAKKKAEAKYKAEAAKAAAKEAAYEA [TV-56] | (2) % | 1614 cpm | (6) % | 1581 cpm | (91) % | 9584 cpm | (59) % | 19545 cpm | (0) % | 232 cpm | (0) % | 237 cpm | (117) % | 3495 cpm | – | – | – | – |
